Experimental findings from article doi:10.1101/2023.10.30.564738 (bioRxiv, 2023) are described below.

Positions count from the first letter of the chain named. Numbers in names are those of the source.

This assay deals with Ndc80 complex (Ndc80-Flag:Nuf2:Spc24:Spc25) (S. cerevisiae, UniProt P40460 1-691; P33895 1-451; Q04477 1-213; P40014 1-221). Put plainly: SEC. A general note: Size exclusion chromatography separates by hydrodynamic size, large species first.
Chain of Ndc80 complex (Ndc80-Flag:Nuf2:Spc24:Spc25) (P40460 whole entry, chain 1 of 4): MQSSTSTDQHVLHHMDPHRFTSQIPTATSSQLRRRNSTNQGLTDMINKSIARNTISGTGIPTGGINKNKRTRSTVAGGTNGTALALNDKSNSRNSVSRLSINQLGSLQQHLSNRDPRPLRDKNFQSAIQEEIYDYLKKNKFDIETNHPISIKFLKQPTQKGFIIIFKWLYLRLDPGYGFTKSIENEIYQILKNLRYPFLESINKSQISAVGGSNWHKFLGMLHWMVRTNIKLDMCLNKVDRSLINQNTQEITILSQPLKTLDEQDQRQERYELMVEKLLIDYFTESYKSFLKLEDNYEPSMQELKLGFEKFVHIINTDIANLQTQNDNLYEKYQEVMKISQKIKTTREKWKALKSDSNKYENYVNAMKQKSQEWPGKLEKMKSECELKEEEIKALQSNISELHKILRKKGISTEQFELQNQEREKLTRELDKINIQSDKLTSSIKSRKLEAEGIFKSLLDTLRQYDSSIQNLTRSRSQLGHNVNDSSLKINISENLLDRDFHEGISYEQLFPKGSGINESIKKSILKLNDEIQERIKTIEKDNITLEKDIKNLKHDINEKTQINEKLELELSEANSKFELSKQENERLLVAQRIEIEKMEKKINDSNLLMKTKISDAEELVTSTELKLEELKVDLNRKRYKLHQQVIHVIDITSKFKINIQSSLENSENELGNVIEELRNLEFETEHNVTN
Chain of Ndc80 complex (Ndc80-Flag:Nuf2:Spc24:Spc25) (P33895 whole entry, chain 2 of 4): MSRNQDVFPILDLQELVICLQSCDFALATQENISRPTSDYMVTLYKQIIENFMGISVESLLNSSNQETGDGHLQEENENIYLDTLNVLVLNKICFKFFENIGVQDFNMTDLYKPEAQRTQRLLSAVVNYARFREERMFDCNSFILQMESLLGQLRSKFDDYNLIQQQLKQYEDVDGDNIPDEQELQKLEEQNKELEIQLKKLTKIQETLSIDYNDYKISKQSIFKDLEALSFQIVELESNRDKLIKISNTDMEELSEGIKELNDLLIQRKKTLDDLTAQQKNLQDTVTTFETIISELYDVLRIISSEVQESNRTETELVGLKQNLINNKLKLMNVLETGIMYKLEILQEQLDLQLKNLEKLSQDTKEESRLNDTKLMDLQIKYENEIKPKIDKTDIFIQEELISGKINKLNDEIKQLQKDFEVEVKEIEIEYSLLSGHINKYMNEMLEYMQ
Chain of Ndc80 complex (Ndc80-Flag:Nuf2:Spc24:Spc25) (Q04477 whole entry, chain 3 of 4): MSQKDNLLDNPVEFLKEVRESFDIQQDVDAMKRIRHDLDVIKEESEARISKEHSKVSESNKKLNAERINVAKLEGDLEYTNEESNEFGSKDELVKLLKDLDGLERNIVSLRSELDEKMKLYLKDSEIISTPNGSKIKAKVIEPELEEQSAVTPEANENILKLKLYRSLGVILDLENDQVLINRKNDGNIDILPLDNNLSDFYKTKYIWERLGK
Chain of Ndc80 complex (Ndc80-Flag:Nuf2:Spc24:Spc25) (P40014 whole entry, chain 4 of 4): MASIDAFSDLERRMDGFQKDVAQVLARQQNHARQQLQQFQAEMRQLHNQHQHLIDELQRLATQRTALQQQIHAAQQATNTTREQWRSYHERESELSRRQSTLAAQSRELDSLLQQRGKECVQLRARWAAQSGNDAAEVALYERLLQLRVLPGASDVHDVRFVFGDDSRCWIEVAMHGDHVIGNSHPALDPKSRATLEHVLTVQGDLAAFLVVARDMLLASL

B1: StrepII-tagged full-length Mps1 (wild type) (natural protein, S. cerevisiae, UniProt P54199 1-764, looked up)
chain: MSTNSFHDYVDLKSRTNTRQFSDDEEFTTPPKLSNFGSALLSHTEKTSASEILSSHNNDKIANRLEEMDRSSSRSHPPPSMGNLTSGHTSTSSHSTLFGRYLRNNHQTSMTTMNTSDIEINVGNSLDKSFERIRNLRQNMKEDITAKYAERRSKRFLISNRTTKLGPAKRAMTLTNIFDEDVPNSPNQPINARETVELPLEDSHQTNFKETKRNTDYDSIDFGDLNPIQYIKKHNLPTSDLPLISQIYFDKQREENRQAALRKHSSRELLYKSRSSSSSLSSNNLLANKDNSITSNNGSQPRRKVSTGSSSSKSSIEIRRALKENIDTSNNSNFNSPIHKIYKGISRNKDSDSEKREVLRNISINANHADNLLQQENKRLKRSLDDAITNENINSKNLEVFYHRPAPKPPVTKKVEIVEPAKSASLSNNRNIITVNDSQYEKIELLGRGGSSRVYKVKGSGNRVYALKRVSFDAFDDSSIDGFKGEIELLEKLKDQKRVIQLLDYEMGDGLLYLIMECGDHDLSQILNQRSGMPLDFNFVRFYTKEMLLCIKVVHDAGIVHSDLKPANFVLVKGILKIIDFGIANAVPEHTVNIYRETQIGTPNYMAPEALVAMNYTQNSENQHEGNKWKVGRPSDMWSCGCIIYQMIYGKPPYGSFQGQNRLLAIMNPDVKIPFPEHTSNNEKIPKSAIELMKACLYRNPDKRWTVDKVLSSTFLQPFMISGSIMEDLIRNAVRYGSEKPHISQDDLNDVVDTVLRKFADYKI
For the molecule B1, the binding result is on record as “binds”.

B2: StrepII-tagged full-length Mps1^bp (R151D R152D R155D) (natural protein, S. cerevisiae, UniProt P54199 1-764, looked up)
chain: B1 chain with R151D, R152D, R155D
Take B2: the binding result is “binds”.
